Reference: patent US20170081419A1 (AbbVie / Abbott, published 2017)

T1: human CD46 (recombinant antigen used in affinity and mapping experiments) (human, UniProt P15529 35-285, limits assumed)
T1 construct: also called CD46 antigen
T1 sequence (looked up): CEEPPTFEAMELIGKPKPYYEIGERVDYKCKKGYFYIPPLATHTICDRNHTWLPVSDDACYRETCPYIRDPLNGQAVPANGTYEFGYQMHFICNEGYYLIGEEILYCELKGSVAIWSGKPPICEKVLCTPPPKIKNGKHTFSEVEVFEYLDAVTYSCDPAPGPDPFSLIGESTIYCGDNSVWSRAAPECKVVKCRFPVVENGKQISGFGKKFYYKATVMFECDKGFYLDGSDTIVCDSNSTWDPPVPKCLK

T2: marmoset CD46 homolog (marmoset (Callithrix jacchus), UniProt Q8HYX8 33-285, limits assumed)
T2 sequence (looked up): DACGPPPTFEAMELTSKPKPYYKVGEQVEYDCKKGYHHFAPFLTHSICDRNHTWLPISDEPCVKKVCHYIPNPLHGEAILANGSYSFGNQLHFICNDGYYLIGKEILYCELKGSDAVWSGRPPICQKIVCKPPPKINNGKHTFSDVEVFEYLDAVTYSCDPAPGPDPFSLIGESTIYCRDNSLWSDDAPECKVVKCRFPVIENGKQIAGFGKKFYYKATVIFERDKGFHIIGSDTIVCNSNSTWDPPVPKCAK


Key:
[1] = biological target: human CD46 on the cell surface (human), P15529; assay: cell-based or functional assay
[2] = biological target: T1, human CD46 (recombinant antigen used in …); assay: SPR (Biacore), human CD46 antigen series, 1:1 Langmuir model
[3] = biological target: T1, human CD46 (recombinant antigen used in …); assay: bio-layer interferometry (ForteBIO, superscript F), antigen concentration series
Description: (§1) With regard to the data, affinity was measured in three ways to ensure accuracy. […] Second, the affinities and kinetic constants kₒₙ and koff of the selected modulators were then measured using bio-layer interferometry analysis on a ForteBIO RED (ForteBIO, Inc.) with a standard antigen concentration series. Finally, the affinity of selected modulators was measured by surface plasmon resonance (Biacore System, GE Healthcare). Based on a standard antigen concentration series and using a 1:1 Langmuir binding model, the Kd of the antibody binding to antigen and the kinetic constants kₒₙ and koff were determined.

marmoset CD46 homolog = biological target: T2, marmoset CD46 homolog; assay: ForteBIO, concentration series of recombinant monomeric CD46 homolog
Description: Finally, cross-reactivity with regard to cynomolgus, marmoset, and squirrel monkey CD46 homologs were evaluated in ForteBIO using a concentration series with recombinantly expressed, monomeric CD46 antigens.

[4] = biological target: T1, human CD46 (recombinant antigen used in …); assay: surface plasmon resonance (Biacore, superscript B), antigen concentration series, 1:1 Langmuir model
Description: as §1

Row | Binder | effective concentrations causing 50% cell death (EC50), HEK-293T cells, streptavidin-saporin [1] [nM] | Kd [3] [nM] | binding result (marmoset CD46 homolog) | other results
1 | humanized antibody hSC1.N71 (antibody, human IgG1, V domains shown, also called humanized SC1.N71; human SC1.N71) VH: QVQLQESGPGLVKPSETLSLTCTVSGGSVSSYDISWIRQPPGKGLEWIGVIWTDGGTNYNSAFMSRVTISVDTSKNQFSLKLSSVTAADTAVYYCARVYDGYPWFAYWGQGTLVTVSS VL: DIQMTQSPSSLSASVGDRVTITCRASQGISNYLNWYQQKPGKAPKLLIYYTSSLHSGVPSRFSGSGSGTDFTLTISSLQPEDFATYYCQQYIKLPWTFGGGTKLEIKR | 0.0266 | – | – | Kd [2]: 0.7 nM
2 | humanized antibody hSC1.N149 (antibody, human IgG1, V domains shown) VH: QVQLVQSGAEVKKPGASVKVSCKASGYTFTDYNMDWVRQAPGQGLEWMGDINPNNGDTFYNQKFKGRVTMTTDTSTSTAYMELRSLRSDDTAVYYCARSKYDNYPWFAYWGQGTLVTVSS VL: DIQMTQSPSSLSASVGDRVTITCRASQDINNYLNWYQQKPGKAPKLLIYYTSSLHSGVPSRFSGSGSGTDFTLTISSLQPEDFATYYCQQYIKLPWTFGGGTKLEIKR | 0.174 | – | – | –
3 | N135.1 (antibody, IgG2b, V domains shown, .1 is the subclone suffix; also called SC1.N135) VH: DVQLVESGGGLVQPGGSRKLSCAASGFTFSSFGMHWVRQAPEKGLEWVAYISSATSAIYYADTVKGRFTISRDNPTNTLFLQMTSLRSEDTAMYYCARKGNNYFDYWGQGTTLTVSS VL: QIVLTQSPAIMSASPGEKVTLSCSATSSVTYMHWLQQKPGSSPKPWIYRTSNLASGVPARFRGSGSGTSYSLTISSMEAEDAATYYCQQYHSYPPTFGGGTKLEIKR | – | 1 | no binding | –
4 | N95.1 (antibody, IgG2a, V domains shown, .1 is the subclone suffix; also called SC1.N95) VH: QVQLQQSGAELARPGASVKLSCKASDYTFTSYGISWVKQRTGQGLEWIGEIFPRSGNTYYNEKFKGKATLTADKSSSTAYMELRSLTSEDSAVYFCARGLGGAMDYWGQGTSVIVSS VL: DIVMTQAAPSVPVTPGESVSISCRSSKSLLHSNGNTYLYWFLQRPGQSPQLLIYRMSNLASGVPDRFSGSGSGTTFTLRISGVEAEDVGVYYCMQHLEYPCTFGGGTKLEIKR | – | 8 | no binding | –
5 | N50.3 (antibody, IgG2b, V domains shown, .3 is the subclone suffix; also called SC1.N50) VH: EVLLHQSGPELVKPGASVKIPCKASGYTFTDYNMDWVKQSHGKSLEWIGDINPNNGGTFYNQKFKGKATLTVHKSSSTAFMELRSLTSEDTAVYYCTRSKYDNYPWFAYWGQGTLVTVSA VL: DIQMTQITSSLSASLGDRVTISCSASQGISNYLNWYQQKPDGTVKLLIYYTSSLHSGVPSRFRGSGSGTNYSLTISNLEPEDIATYYCQQYIKLPWTFGGGTKLEIKR | – | 1 | – | –
6 | N146.2 (antibody, IgG1, V domains shown, Kept apart from m10, which is the mouse/human chimeric form of the same clone; also called SC1.N146 (murine hybridoma clone)) VH: EVQLVESGGGLVKPGGSLKLSCAASGFTFSSFGMSWVRQTPEKRLEWVAAINSNGGNTYYSDTVKGRFTISRDNAKNTLYLQMSSLRSADTALYYCARVVHFDVWGAGTTVTVSS VL: AIQMTQTTSSLSASLGDRVTISCSASQDISNYLNWYQQKPDGTVKLLIYYTSSLHSGVPSRFSGSGSGTDYSLTISNVEPEDVATYYCQQYSELPYTFGGGTKLEINR | – | – | no binding | Kd [4]: 1.5 nM
